Experimental data reported in the DeepSol protein solubility set.

assay: soluble on expression in E. coli; label from the status in PepcDB or PDB records

Question: For “MGSDKIHHHHHHTDENETNNGKRTDCYNGTPLTVRATATGFENVPGSEKPSTRASVTDEHLKTEFVDGDSIGIFSIKDSTIVDDINNIPLVYNVSNDSWNPVENSKTLYWYDGASYIAYYPYRKNITLDVSKDTDEAIASLTRNEKLQPSKDQSTKEKHTVSDLLIATGVPTTGNSSGIILNLQFKHQFTLLVLQPQAYIGCFAPENAGFVYHKESRILGTDSAAINVNLNGITPYQIDSVKFCAIVPSQKNARITGSYVTADGRNNTNTKINYSGSSITFASGKCYTLKVISPVPGKGSTERKLYPGDFVFQNETEKRIEIHPGDGMLEENGKIYDYQNAIGMVITCDSKKMTDVKCNENGWNHAYVMGFENLGTGRWGGMERIEEGITPMTKDDEIEKNMNGYSETEQMLKNYTANVQGSYSAFESIRKYRNSNKIPDGLNRSPWFVPSIGQWFDMLVNICGKSPRDFRNETSNGLNDTGWGQETLDKLTIQLSKVGNSLPQFSDTYRLGFSCSSQYDKDRCWMLLWHIDDPEYPNWDRVCLQGYDKKAYWNVRPFFAF”, which “soluble on expression in E. coli” value is on record?
Answer: The value was “not soluble”.

Question: For “MGSDKIHHHHHHVAKSIAGGVRPGIIIDIEHRLLKQIIVGKQKAAASMFDDLDRELENDANKLAIERDAVFERLSKQIQARQVYEAVSKQLITTVNSTLDNQLASPELLIQHSGINASQMLMLELLQQKNLDLSRLRLLIADLPWLARDLTNMVNSPSFRHKRQQRSDVKVTEIKLVLNFIGVENLRLLIPYYCLRNWLPTGHANLLWTTRKLWRYAMVTGIAAKALAQLNEQDMATAYTSSLLYQLGVSVVLKNGAKVYESIWGNWLREASASRDKELHDAVLATEFPAEDIYQQVLQHAHTLNWRLPELLDFSASGLTQTQRELDTCLSYSELSTEAALVARASCYAKVLMLDEMRLISPKEKQMMFDYYQLSEQEQIRLKGQNYRKLDLY”, which “soluble on expression in E. coli” value is on record?
Answer: Its value is “not soluble”.

Question: With “MGSDKIHHHHHHVAPSIRARSAGRDETEFDFMMTDPLALAKRLIALRARIVATFNAGNWEEVGLLSGQSKIITGHDRLLRSLSWHDEDYEGNVLTVLRRISDRDVRALDVIEEYLNEKFPGEEKTEYVSAKPSERKITFAPNVFQIPDGSVESDLVAVMMPFSPEFKPVYEAMKRACTANSLRSMRVDDMWQDSVIVQDIFSLIFRAQVVVVDFSRKNPNVMYETGIAHTLGKHVVPIAQTIDDVPFDMRHHRTLLYLANGEGLQQLERELAAKLKQFGGGGPPIINLGFSR” as the sequence, how does the “soluble on expression in E. coli” value read?
Answer: The value was “not soluble”.

Question: With “MGSDKIHHHHHHVDLGHDVTLFASGDSITSAKLDACWPRALRLDPTIRDALAPHMLMMEKVRKVAHEFDVLHFHLDYMPFPLFTTMDTPFVTTLHGRLDLPELQPVFDACSNVPVVSISDSQRQPLPQANWLNTIYHGLPEQLLTPQAHKKPEYLAFLGRICPEKRVDTAIRIAAQSGLPLKIAAKVDKVDQEYFKREIEPLLSMAHVEFVGEINEAQKPEFLSSAKALLFPIDWSESFGLVMIESMACGTPVIAFNRGSVPEVIDHGVTGYIVEDVQGAVAALQRLDELSRTEMRGRRLNLPLEKMRDWRIGSRVCRHHAG” as the sequence, how does the “soluble on expression in E. coli” value read?
Answer: Its value is “not soluble”.

Question: Which “soluble on expression in E. coli” value does the source give for “MGSDKIHHHHHHVEQAQLDEYLDRFQLTDVFAGGLREHLQPVAFQAGDWLCRQGDAADRMYLLLEGKLKITHMSATGKRLVLSFKHPFDLVGDIEYVRRTPLMNTVEAVTPVKAVSISYAALEQKGADNPALLRFLLETITMKFELKSHSMSFNLLYPVEVRLASYLLSMTPETPTLPVSDLVDAADLIGTSYRHLNRVLRQFSQDNLIERTNRTITIIDREGLTERVGESIYE” here?
Answer: The value was “not soluble”.

Question: With “MGSDKIHHHHHHVHAASRGAHRRLGAMRSSASQPLLKAALWDMDGTIVDTEPYWIEAEHALVAAHGGQWSHAQAMQLVGQSLVFSAGVLQKAGVKLEAREIIDSLTARVVSKVRKSVPWRPGARELLDQLHEAGIRCALVTMSEGPLAREVVAALPKPYFEFLVTGDTVTNGKPHPEAYLKAVELLQQGDSALTIADCVALEDSAPGVAAAMAAGVATVAIPHIVPLPDDPARATWHSLEGRTVADLQQLVARRSEFAVGDIGLEDAAFRSHGLD” as the sequence, how does the “soluble on expression in E. coli” value read?
Answer: The value was “not soluble”.

Question: For “MGSDKIHHHHHHVHKSLSNAFEGFSFSGDITTDVLGLLHHHGRQDVAKHVLAVAKTAQRLAPIYDVDSEAAYSAGLLHDISLIFSTSQMLQTALDLGLEPVTAEKRVPYLLHGKLSAAMAEIVFGVKNDSLVHAVSCHTTLCARATTLDKVVFLADKMSWDQEYSPFKPELETALEKSLDEAVGVFLTWTWKQKEKLNSIHPWLIDAWKDYKVGDYA”, which “soluble on expression in E. coli” value is on record?
Answer: The value was “not soluble”.

Question: Which “soluble on expression in E. coli” value does the source give for “MGSDKIHHHHHHVKTRFFCQSCGQESPRWLGKCPGCGEWNTLVEEVVERAAAKRTPLGVKATPLTEIQIREEERVSSGSQELNRVLGGGIVPGSFVLLGGEPGIGKSTLLLQTAGLLAKGMDVLYISGEESEKQIKLRAERLGIKESRLHILTETRLEVVRDVALAMGPGLLIVDSIQTMVLEELQAAAGSVSQVREGAAFLMRLAKEEEIPIFLVGHVTKEGAIAGPRVLEHIVDTVLYFEGDRHHVYRLLRAVKNRFGSTNEIGVFEMHEDGLVEVPNPSKVFLGENSATAPGSSVAVIVEGSRPLLVEIQALVTPTTYGPPRRTATGIDYNRILMLLAVLDKKVGLHLGAQDVFINIAGGIRIDEPGVDLACIAAIASSLGERPLKRYALVGEVGLTGEVRGISQIEKRVKEAVKLGFEGCIIPRINVSAVKVPGNFTVIAVKTVEEAVQVMFEQ” here?
Answer: Its value is “not soluble”.

Question: For “MGSDKIHHHHHHVRACCGDQRAMSATDHGLPAIAELTDKELEVLRLLTAGHTIKSIAALLDRSEASINERLRDARRKTGVGSSRELARLVAGQENWPRKTDLSTPAVSGDADGQPALAARHWPKGTIAMFTLLPLAAGLMLVSAASQQADGPQSSHAAAAIASPLVGKWSLDTSRIPADERPRSVMIAFSVSPDQQWSTQVDIVAPDGSKMTATSTARADGVAVPISGNIPIFDTASLRQPAPNTLVMTLGKSGTPVATRVYTVARDGNSMTETIVWADKTMPKMETTYFNRVG”, which “soluble on expression in E. coli” value is on record?
Answer: Its value is “not soluble”.

Question: For “MGSDKIHHHHHHYYYARGTYTHYNLDFDQDVTHLLDLGMKQISLEPVVAQPSDPYAFQEGDLPEILKTYDRLGEELLARRRKGEDFSFFHFNVALDQGPCLPKRLSGCGAGHEYVAISPEGDLYPCHQFVGQEEFKMGSLGQEGVPLNPEIIAKFRSAHVYSKAACRQCWARFSCSGGCHSANHAFSGQLNEVYALGCEFQKKRLEVALYMKIKEA”, which “soluble on expression in E. coli” value is on record?
Answer: Its value is “not soluble”.

Question: For “MGSIIFLEDRAFQGRIYGCTTDCPNLQPYFSRCNSIVVQSGCWMIYERPNYQGHQYFLRRGEYPDYQQWMGLSDSIRSCCLIPPHSGAYRMKIYDRDELRGQMSELTDDCLSVQDRFHLTEIHSLNVLEGSWILYEMPNYRGRQYLLRPGEYRRFLDWGAPNAKVGSLRRVMDLYLEHHHHHH”, which “soluble on expression in E. coli” value is on record?
Answer: The value was “soluble”.

Question: For “MGSISRYLLKKAADGLKDEQRLKIEMSDSKSVPECFHFNRERRMPIAEINGEDGFFMFPSQQSLENFENTKKYSNELSPDAIGIPLFQIINCTLPFGKRGHSNTVVGNVPYYKIFKFILRTADEPPPYTVAKIVCSNNGLILYKVPLYDIYKNVSQANVTYSFVGTTSTEPNLLAMAHREGHRDLDTKVNNLNLRWHVTYSPVVTNDHYKLILLADYEVNRLDEDVIRAAKNKMSIDQKDQKVQRFVAAHYTREFETSLFRWVAQEGHLILGEYSTDQGSFGLNNIPPLTEELGCQSLLIHYIEYMKRQRKKIAKEARRQNKRNVANTTNMNMNLM”, which “soluble on expression in E. coli” value is on record?
Answer: The value was “soluble”.

Question: For “MGSLGPKVFKLDQLPGTIGKKAAKGASVKFSESSTQAVIKATYLQVFGRDVYEGQRLKVQEIKLENGEISVRDFVRALAKSDLFRKLYWTPFYVCKAIEYIHRRLLGRPTYGRQENNKYFDIASKKGLYAVVDAILDSLEYTETFGEDTVPYERYLEHHHHHH”, which “soluble on expression in E. coli” value is on record?
Answer: The value was “soluble”.

Question: Which “soluble on expression in E. coli” value does the source give for “MGSLVHVKEATVITPSDQTPSSVLSLSALDSQLFLRFTIEYLLVYPPVSDPEYSLSGRLKSALSRALVPYFPFSGRVREKPDGGGGLEVNCRGQGALFLEAVSDILTCLDFQKPPRHVTSWRKLLSLHVIDVLAGAPPLVVQLTWLRDGGAALAVGVNHCVSDGIGSAEFLTLFAELSKDSLSQTELKRKHLWDRQLLMPSPIRDSLSHPEFNRVPDLCGFVNRFNAERLVPTSVVFERQKLNELKKLASRLGEFNSKHTSFEVLSAHVWRSWARSLNLPSNQVLKLLFSVNIRDRVKPSLPSGFYGNAFVVGCAQTTVKDLTEKGLSYATMLVKQAKERVGDEYVRSVVEAVSKERASPDSVGVLILSQWSRLGLEKLDFGLGKPVHVGSVCCDRYCLLLPIPEQNDAVKVMVAVPSSSVDTYENLVTSPNA” here?
Answer: Its value is “not soluble”.

Question: For “MGSMSMNAEQTVAELIARSNRLGSDPKNTNYAGGNTSAKGTDTDPVTGQPVELLWVKGSGGDLGTLTENGLAVLRLDRMRALVDVYPGVEREDEMVAAFDYCLHGRGGAAPSIDTAMHGLVDAAHVDHLHPDSGIALATAADGEALTKQIFGDRVVWVPWRRPGFQLGLDIADIKRRNPQAIGTILGGHGITAWGSTSAEAEAHSLEIIETAERYIAENGLEHHHHHH”, which “soluble on expression in E. coli” value is on record?
Answer: The value was “soluble”.

Question: With “MGSSHHHHHHGGTGENLYFQGGSGMSNSTEQALLQIAQQIERAVDDEIDRIDQMDDDEILAIRQKRLKQLKEIQARRDEWLRKGHGQYLEIAEPKEFFDNVQSSERIVVHFMRRSTPRCEIIERHLRTIAHEHFETRFCYVDVERIPSLPERFNVMMLPTLMLVEKGHTFHSIIGFDEFGGTDDFTTDTVTQVLAHYGMVNEKGMFAADQNDE” as the sequence, how does the “soluble on expression in E. coli” value read?
Answer: Its value is “soluble”.

Question: With “MGSSHHHHHHGGTGENLYFQGGSGRRLPLFCRRPSRCCGATASGSGSSSAAVLAASAAPSVLVLAARGIATSGRVTNEDRRWWLVHLECAPDVTPGTFVSWLDCCGTHTTKKLIERNIWTIEQVAELDSDRVDELKYKEGCLKMDVVWEHARTIITPLKQREVSGGVESQLQSRILELRKKRELERQRELLARERATVSDKREETLRRLRESVAAKKAALRKKLDEQHGEATPAASESASTEAHRGTAEAAVEDEAVGNIVDRMSGGNPPRA” as the sequence, how does the “soluble on expression in E. coli” value read?
Answer: The value was “not soluble”.

Question: With “MGSSHHHHHHGGTGENLYFQGGSGTAPPGSPAFCPPPAQYQYAYVPAASYVAASSCVGRGNNGGPLPYPLQPEAAPGYGEEQTSLLWNTRLFGLSTDVPSAMDSVMCIYCISSTHFNYLYRQQRGMFDPITAALLCFDVFWCMQLWPVVTPLSSITLHTLITRRELRKRYGLVGNDLFVKMDRLNADTAAATEAGETGAQAEEATTAEVESQPHRARDSDVTAEAAAAEPAGTGEAAAEVISVTPPATAPSEAAAPRTGESDVMAHTPRRVCHGLRS” as the sequence, how does the “soluble on expression in E. coli” value read?
Answer: The value was “not soluble”.

Question: Which “soluble on expression in E. coli” value does the source give for “MGSSHHHHHHGKTIFVIVPTNEEQVAFLEALAKQDELNFDWQNPPTEPGQPVVILIPSDMVEWFLEMLKAKGIPFTVYVEEGGSENLYFQGGGGGGWPTEDPNELLKSQVWQKYHNQLNERKEYADKLLQDSNYIHRKNNPGE” here?
Answer: The value was “soluble”.

Question: With “MGSSHHHHHHSSGLVPRGSHMAAPIRFFELNTGAKLPCVGLGTYAMVATAIEQAIKIGYRHIDCASIYGNEKEIGGVLKKLIGDGFVKREELFITSKLWSNDHLPEDVPKALEKTLQDLQIDYVDLYLIHWPASLKKESLMPTPEMLTKPDITSTWKAMEALYDSGKARAIGVSNFSSKKLTDLLNVARVTPAVNQVECHPVWQQQGLHELCKSKGVHLSGYSPLGSQSKGEVRLKVLQNPIVTEVAEKLGKTTAQVALRWGLQTGHSVLPKSSSGARLKENLDVFDWSIPEDLFTKFSNIPQEKFCRATEFAHETHGFYKTIEELWDGEI” as the sequence, how does the “soluble on expression in E. coli” value read?
Answer: The value was “soluble”.
